Reference: patent publication US7026282B1, “Peptide antagonists of the human urokinase receptor and method for selecting them” (Cancerforskningsfonden AF 1989 (Fonden Til Fremme AF …, priority 1998, dated 2006)
“Also recorded” adds a separate entry of the source. Positions of bridges follow the written chain, without caps; N, C: chain ends. Non-standard residues stand in square brackets, D forms with d. Residues, ends and D or L forms follow the SMILES beside them. Chains are numbered I, II in the order given. No end group written: not given here. Cha = N[C@@H](CC1CCCCC1)C(=O)O; βAla = NCCC(=O)O

Experiments:
[1] = biological target: T1, neuramimidase-treated human suPAR (soluble recombinant uPAR) (Homo sapiens, UniProt Q03405); experiment: Biacore Binding Assay (surface plasmon resonance), ligand binding to immobilised suPAR; conditions: for koff: Biacore, 5° C., immobilised suPAR, read-out: kdiss (dissociation rate constant, off-rate)
T1 construct: A soluble recombinant variant of human uPAR (suPAR) was expressed in Chinese hamster ovary (dhfr) cells; made in house; host or cells: Chinese hamster ovary (dhfr) cells
Description: Association rate constants (kass), dissociation rate constants (kdiss) and equilibrium binding constants (kd) for various synthetic peptides and receptor binding derivatives of human uPA were determined by surface plasmon resonance (R. Karlsson et al. (1991) J. Immunol. Meths. 145:229–240) using a BIAcore2000™ instrument (Pharmacia Biosensor, Uppsala, Sweden). Due to the low isoelectric point of uPAR (pI≈4.5) terminal sialic acid residues were removed from its N-linked carbohydrates to facilitate chemical immobilisation on the sensor chip. This was accomplished by incubating purified suPAR (1 mg/ml in 50 mM phosphate, 150 mM NaCl, pH 7.4) with 5 μg/ml neuramimidase for 4 hours at 37° C. […] Coupling of the neuramimidase-treated suPAR to a BIAcore sensor chip was achieved by injection of 20 μg/ml suPAR in 10 mM sodium acetate pH 5.0 for 6 minutes at a flow rate of […] per minute using a carboxymethylated dextran matrix (CM5 sensor chip) preactivated with N-hydroxysuccinimide/N-ethyl-N′-[3-([…])propyl]carbodiimide according to the manufacturer's recommendations. Approximately 1,500–2,000 resonance units (RU) were immobilised by this procedure (corresponding to 1–2 ng suPAR/mrn^2).
Sensorgrams (RU versus time) were recorded (FIG. 2) at a flow rate of 10 μl per min at 5° C. using several different concentrations of the ligand (synthetic peptides, uPA, the amino-terminal fragment (ATF) of uPA, or the growth factor domain (GFD) of uPA) in the range of 10 to 1000 nM in running buffer (10 mM HEPES, 150 mM NaCl, 3 mM EDTA (pH 7.4) including 0.005% surfactant P-20). Stock solutions of peptides from combinatorial chemistry were made in DMSO (10 mg peptide/ml DMSO). The sensor chip was regenerated at the end of each run by injection of 0.1 M acetic acid, 0.5 M NaCl. Data obtained from parallel mock coupled flow cells (subjected to the coupling procedure in the presence of buffer only) served as blank sensorgrams for subtraction of changes in bulk refractive index. The sensorgrams obtained were analysed by non-linear least squares fitting using BIAevaluation 2.0 software (Pharmacia Biosensor, Uppsala, Sweden) assuming single-site association and dissociation models.
Purified human suPAR (1 mg/ml in 50 mM phosphate, 150 mM NaCl, pH 7.4) was incubated with 5 μg/ml neuramimidase for 4 hours at 37° C.
In order to couple the neuramimidase-treated suPAR to a BIAcore sensor chip, 20 μg/ml suPAR in 10 mM sodium acetate (pH 5.0) was injected for 6 minutes at a flow rate of 5 μl per minute using a carboxymethylated dextran matrix (CM5 sensor chip), thereby immobilising approximately 1,500–2,000 resonance units (RU), which correspond to 1–2 ng suPAR/mm^2. The CM5 sensor chip was preactivated with N-hydroxysuccinimide/N-ethyl-N′-[3-([…])propyl]carbodiimide in accordance with the manufacturer's recommendations.
Surface plasmon resonance sensorgrams (RU versus time) were recorded at a flow rate of 10 μl per min at 5° C. using several different concentrations of the ligand (i.e. the relevant peptide or GFD) in the range from 10 to 1000 nM in running buffer (10 mM HEPES, 150 mM NaCl, 3 mM EDTA (pH 7.4) including 0.005% surfactant P-20).
The sensor chip was regenerated at the end of each run by injection of 0.1 M acetic acid, 0.5 M NaCl.
Data from parallel mock coupled flow cells (subjected to the coupling procedure in the presence of buffer only) served as blank sensorgrams for subtraction of changes in bulk refractive index.
The obtained sensorgrams were analysed by non-linear least squares fitting using BIAevaluation 2.0 software (Pharmacia Biosensor, Uppsala, Sweden) assuming single-site ssociation and dissociation models.

[2] = biological target: cell-surface uPAR on monolayer cultures of human MDA-MB-231 breast cancer cells (Homo sapiens, UniProt Q03405); experiment: Cell binding experiments with 125I-labelled human ATF (uPA/uPAR Binding Assay)
Chain of cell-surface uPAR on monolayer cultures of human MDA-MB-231 breast cancer cells (Q03405 23-305): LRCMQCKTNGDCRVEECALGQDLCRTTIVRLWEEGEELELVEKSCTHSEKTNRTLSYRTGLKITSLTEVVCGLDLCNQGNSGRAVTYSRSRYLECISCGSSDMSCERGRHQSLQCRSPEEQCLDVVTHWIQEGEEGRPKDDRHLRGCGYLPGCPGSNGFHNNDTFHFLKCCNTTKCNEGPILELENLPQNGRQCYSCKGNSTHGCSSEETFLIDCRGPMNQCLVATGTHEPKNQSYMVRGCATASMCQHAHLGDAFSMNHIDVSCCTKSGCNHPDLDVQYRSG
Description: The peptides were tested for their ability to inhibit binding of radio-labelled amino terminal fragment (ATF) of human uPA to monolayer cultures of human MDA-MB-231 breast cancer cells.
MDA-MB-231 BAG cells were harvested by trypsin/EDTA treatment and added to 5% FCS supplemented medium in 24 well cluster plates at a cell density of 100,000 cells per well or as indicated otherwise. For background estimation, wells without cells were included in order to measure binding of ^125I-labelled ligand to the plastic. Next day the adherent monolayers were washed twice in binding-buffer (0.1% bovine serum albumin (BSA; Fraction V, Sigma) and 5 mM Hepes in Eagles MEM supplemented with Glutamax-1, pH 7.4). Before binding experiments, the cells were subjected to acid treatment to liberate receptor-bound endogenous uPA. Each culture well was incubated for 3 min at 23° C. with 200 μL of 0.05 M glycine-HCl, 0.1 M NaCl, pH 3.0, after which 200 μL of 0.5 M Hepes, 0.1 M NaCl pH 7.5 was added to neutralize the acid buffer. The wells were then emptied and washed once with binding buffer. Various competitors diluted in binding buffer were then added to the wells, followed by a pre-incubation at 37° C. for 15 min. Finally, ^125I-labelled ligand was added to each well at a final concentration of 1 nM. […] Aliquots from the wells were finally measured for radioactivity on a γ-counter.

[3] = Peptide stability in mouse serum ex vivo, read out by ATF cell-binding inhibition; type: in vitro ADME; conditions: 10% mouse serum, up to 24 hours, 37° C.
Description: Mouse blood was collected from anaesthetised mice (femal nu/nu-META/Bom (Bomholtgaard, Ry, Denmark)) by cardiac puncture. The blood samples were allowed to clot for 30 min at room temperature, followed by centrifugation at 1,000×g for 10 min at 20° C., and the sera were sterile filtered using 0.8 μm/0.2 μm filters (Acrodisc PF, Gelman Science, MI) and then stored at 4° C. until use. The peptide antagonists were added to fresh pooled mouse serum at the indicated concentrations (FIG. 5) and incubated at 37° C. for different periods, between 0 hours and 24 hours. Serum incubated samples were diluted 1:10 in binding buffer (0.1% bovine serum albumin and 5 mM Hepes in Eagles MEM supplemented with Glutamax-1, pH 7.4). Subsequently, cell binding experiments in the presence of ^125I-labelled human ATF were performed in duplicates as above, by preincubating MDA-MB-231 BAG cells at 37° C. 15 min with the 1:10 diluted serum incubated samples ± peptides. In parallel, peptides diluted in binding buffer alone were included as controls.
AE118 and AE78 (for comparison) were incubated at 37° C. in the presence of 10% mouse serum for different time intervals, up to 24 hours. The incubation mixtures were tested for their ability to inhibit binding of radio-labelled human uPA amino terminal fragment (ATF) to monolayer cultures of human MDA-MB-231 breast cancer cells, as described in Example 7.

[4] = biological target: soluble recombinant variant of human uPAR (suPAR) (human) (UniProt Q03405); experiment: SPR (Biacore), ligand over immobilised neuramimidase-treated human suPAR
Chain of soluble recombinant variant of human uPAR (suPAR) (human) (Q03405 23-299, change not shown): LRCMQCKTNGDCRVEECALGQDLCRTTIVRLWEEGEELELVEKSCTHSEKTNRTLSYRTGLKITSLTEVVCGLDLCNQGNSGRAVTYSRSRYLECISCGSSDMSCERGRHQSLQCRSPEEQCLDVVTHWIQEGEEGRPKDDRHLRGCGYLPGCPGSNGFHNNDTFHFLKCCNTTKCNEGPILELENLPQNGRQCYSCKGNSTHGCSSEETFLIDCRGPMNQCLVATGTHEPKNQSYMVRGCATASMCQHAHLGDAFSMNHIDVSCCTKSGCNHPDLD

[5] = biological target: T2, human uPAR on the surface of human MDA-MB-231 breast cancer cells (human, UniProt Q03405 23-305); experiment: competition with 1 nM ^125I-labelled human ATF for binding to MDA-MB-231 cell monolayers
T2 construct: whole, on cells; also called cell-surface uPAR
T2 sequence (Q03405 23-305): as the sequence (Q03405 23-305) above
Description: Next day the adherent monolayers were washed twice in binding-buffer (0.1% bovine serum albumin (BSA; Fraction V, Sigma) and 5 mM Hepes in Eagles MEM supplemented with Glutamax-1, pH 7.4). Before binding experiments, the cells were subjected to acid treatment to liberate receptor-bound endogenous uPA. Each culture well was incubated for 3 min at 23° C. with 200 µL of 0.05 M glycine-HCl, 0.1 M NaCl, pH 3.0, after which 200 µL of 0.5 M Hepes, 0.1 M NaCl pH 7.5 was added to neutralize the acid buffer. The wells were then emptied and washed once with binding buffer. Various competitors diluted in binding buffer were then added to the wells, followed by a pre-incubation at 37° C. for 15 min. […] Cells were incubated at 4° C. for 60 min, and then washed three times in binding-buffer. Subsequently, the cells were lysed by addition of 1 N NaOH to the wells. Aliquots from the wells were finally measured for radioactivity on a γ-counter.

[6] = biological target: soluble recombinant variant of human uPAR (suPAR) (human) (UniProt Q03405); experiment: SPR (Biacore), immobilised human suPAR

Molecule: CC(C)C[C@H](NC(=O)[C@H](Cc1ccc(O)cc1)NC(=O)[C@@H](CCCNC(=N)N)NC(=O)[C@@H](CO)NC(=O)[C@H](Cc1ccccc1)NC(=O)[C@H](CC1CCCCC1)NC(=O)[C@@H](N)CC(=O)O)C(=O)N[C@@H](Cc1c[nH]c2ccccc12)C(=O)N[C@@H](CO)C(=O)O [AE105, DchaFsrYLWS]
- koff [1]: 0.00021 s⁻¹
- off-rate, fold slower than AE78 ([1]; compared with AE78): 48 fold
- Relative kdiss ([1]; relative to the Growth Factor Domain of uPA (GFD = 1.0)): 1.5
- IC50 ([2]; 1 nM 125I-labelled human ATF, 0.1% BSA, read-out: IC50, inhibition of the binding of ATF to MDA-MB-231 cells): 10 nM
- effectiveness in inhibiting radio-labelled human ATF binding to cell-surface uPAR ([2]; 0.1% bovine serum albumin): more effective than the reference peptide AE78

Molecule: CC(C)C[C@H](NC(=O)[C@H](Cc1ccc(O)cc1)NC(=O)[C@@H](CCCNC(=N)N)NC(=O)[C@@H](CO)NC(=O)[C@H](Cc1ccccc1)NC(=O)[C@H](CC1CCCCC1)NC(=O)[C@@H](N)CC(=O)O)C(=O)N[C@@H](Cc1c[nH]c2ccccc12)C(=O)N[C@@H](CO)C(=O)NCC(=O)NCCCC[C@H](NC(=O)CNC(=O)[C@H](CO)NC(=O)[C@H](Cc1c[nH]c2ccccc12)NC(=O)[C@H](CC(C)C)NC(=O)[C@H](Cc1ccc(O)cc1)NC(=O)[C@@H](CCCNC(=N)N)NC(=O)[C@@H](CO)NC(=O)[C@H](Cc1ccccc1)NC(=O)[C@H](CC1CCCCC1)NC(=O)[C@@H](N)CC(=O)O)C(=O)O [AE118, [DChaFsrYLWSG]2-K] (I: H-D[Cha]F[dS][dR]YLWSGK-OH / II: H-D[Cha]F[dS][dR]YLWSG; amide I:11-II:C; N-terminus and C-terminus assumed)
- koff [1]: 4e-05 s⁻¹
- ability to inhibit ATF binding after incubation in mouse serum (stability) [3]: only a slight reduction; also recorded: more resistant than AE78

Molecule: AEPMPHSLNFSQYLWYT (also called Clone 20) [AE78]
- Relative kdiss (relative to GFD) [4]: 72.1
- IC50 [5]: 200 nM

B1: AE118 (peptide)
peptide 1: D[Cha]F[dS][dR]YLWSGK
peptide 2: D[Cha]F[dS][dR]YLWSG
modifications: also: lactam at chain A 11 at chain B 10 to a chain's C-terminus
notes: also called [DChaFsrYLWSG]2-K; dimer AE118
- fold slower off-rate than the monomer AE105 [6]: 5 to 7 times
- Relative kdiss (relative to GFD) [4]: 0.28
- IC50 [5]: 2 nM

B2: AE120 (peptide)
peptide 1: D[Cha]F[dS][dR]YLWSG[βAla]K
peptide 2: D[Cha]F[dS][dR]YLWSG
modifications: also: lactam at chain A 12 at chain B 10 to a chain's C-terminus
- fold slower off-rate than the monomer AE105 [6]: 5 to 7 times
- Relative kdiss (relative to GFD) [4]: 0.21

Molecule: DXFSRYLWS (beta-cyclohexyl-L-alanine (Cha) at 2; D-Ser at 4; D-Arg at 5) [AE105]
- fold slower off-rate than AE78 [6]: 48 fold
- Relative kdiss (relative to GFD) [4]: 1.5

Molecule: DNF[dS][dR]YLWS [AE113]
- Relative kdiss (relative to GFD) [4]: > 100

Molecule: DFF[dS][dR]YLWS [AE112]
- Relative kdiss (relative to GFD) [4]: 12.9
- koff [4]: 0.00181 s⁻¹
